Laboratory results as given in the supplement of paper PMC12042874.
± gives the uncertainty stated by the source.

Experiment: amyloid nucleation score (Sup35N fusion, yeast selection) (log enrichment); library NNK2; higher = more nucleation; inactive = no reads after selection
Procedure, shortened: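 DiMSum was used to calculate nucleation scores as log enrichment of output over input reads, centred on the mode score of non-aggregating sequences. Sequences with fewer than 100 input reads were not scored. Input and output came from Illumina sequencing of plasmid inserts in psi-negative yeast expressing peptides of 20 random codons fused to Sup35N, induced 24 hours with 100 μM copper sulfate and then grown 7 days at 30°C on medium lacking adenine and uracil.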

Substance	amyloid nucleation score
VSNRLRLSFKRVPHHAGYRP	2.76 ± 0.2
RIFVWVGSVWFWGVS	3.55 ± 0.13
VACETRRRA	4.948 ± 0.04
FCISFYTNIPSDS	-0.836 ± 0.55
RVIVGRYWQSTDVVYYIWNF	-1.59 ± 0.76
RKVLLVNVLGSDEDTHLTRV	-0.973 ± 0.76
MLVRIYLYRKRSYMVRSALM	1.52 ± 0.12
YGTWKVRKCGLSIFGVGGPD	-0.303 ± 0.63
GEGVSIMYRWHL	1.21 ± 0.1
CCIRSLWLNLVLTNASGPSL	4.39 ± 0.049
CITLMYNTPFYKITALWQPF	-0.484 ± 0.78
TLHLWGSK	1.38 ± 0.42
SNLVKHRQV	0.745 ± 0.46
PMDEWHSFPLQNKLRVIGCG	0.115 ± 0.23
DIFLTLEFYISVETKGAKKA	3.92 ± 0.05
LNYRCAWWMLATMMLKRLSC	2.15 ± 0.31
NVAMSCPRGRVPR	1.35 ± 0.38
EYFTYVSAVWKSWCTYGGPA	0.529 ± 0.38
YIGVIT	5.38 ± 0.1
GVFASSLLVFQLFFISPSNG	6.181 ± 0.028
LNLSYIKAVTSRFAADYVL	0.523 ± 0.18
MAFCCLSVRYTIGRVVAFMY	-0.4 ± 0.64
CYMYDSVTNWTYWLSG	-0.679 ± 0.26
LSPRSGNRTP	-0.436 ± 0.41
GYNHFFTNDIISRGFPVSFK	inactive

Substance	amyloid nucleation score
INIRLFFHDFTRMGSELIGY	0.318 ± 0.8
RECNRNFQKSGSSEHETGLG	-0.844 ± 0.54
IHRPTRFYTFSSSTSEQA	0.351 ± 0.64
GSAFGGRRLFEGLRGGIREW	0.665 ± 0.4
DGFHLNALHLESRQLGVGFS	3.87 ± 0.069
FCVIPIKGQRSLHIPVQLFG	-1.07 ± 0.76
WSDSFTCDCGKLITTSSRLS	2.02 ± 0.15
ITMSYTLGPSCFFWSLADTY	8.218 ± 0.065
YIAILFYMC	7.2 ± 0.044
MTIGFNAIYHQFRVTRCLVT	0.545 ± 0.53
DWGGVLCATVG	inactive
SEGRATARQLLVKDTLFV	4.06 ± 0.088
TDCTLSGKRLRYLNGDCFKK	-1.13 ± 0.55
GNYHFCRERGRVACW	-0.378 ± 1
IVISWIPDNPNQMDALCRRY	0.912 ± 0.34
FYRGLVDHRMNFITFNCGRQ	5.6 ± 0.095
HFDFGFIGRDVIDVIDVRTN	0.039 ± 0.46
NIGSVKN	0.098 ± 0.38
YPVTYQLCILICTGYADKWR	-1.26 ± 0.64
RISCSMVKRSYFRHVLVCEI	1.74 ± 0.26
TIHRVVWCLL	-0.645 ± 0.56
CHLHIYGTRIERAYHRDFFL	3.4 ± 0.1
ACFSSSLCFVGMERSRSHNF	1.91 ± 0.13
WSPYEEPR	0.298 ± 0.35
RYGAMKLDTSKS	0.11 ± 0.25

Substance	amyloid nucleation score
SRYSSV	0.172 ± 0.65
YYSPYN	inactive
VITGYCA	2.48 ± 0.094
SCVVLNSYQCTAKRY	0.284 ± 1.1
GSRYTEKIPGNRNRSRISL	-0.484 ± 0.35
SLYKHSTHWRLCSTMAIVKP	0.953 ± 0.51
TTTESMRIWPTNRFKRCTLQ	0.582 ± 0.2
RKATQIPMSVSMER	1.45 ± 0.4
PIMCKGNLTDFTFYCFCKFD	6.6 ± 0.067
SLSWLWFLNSKSRMSTDISV	inactive
YIYYNYKGLSVVFLSNSNMW	2.88 ± 0.12
KHSRMYLR	1.49 ± 0.17
SILLLIKVYFWGLCNPMILA	-1.65 ± 1
LEAISCKWYTLYVVYSCNSW	-0.877 ± 1
SRNSLLRS	-0.924 ± 0.45
GHYLYGFSKNPASENLNAFQ	-1.68 ± 0.75
FSLFISKMN	-0.474 ± 1
NCETLCVLVGAQYC	4.13 ± 0.049
SLAFNPISCAANLPFFHIQF	0.29 ± 0.77
YCILLLNVVVMCYMMCDGFA	0.635 ± 0.65
VSEANVTYINFFC	4.36 ± 0.089
GSTKFSRDERIAEGGNRGNK	-0.007 ± 0.3
VACHVR	0.975 ± 0.4
IVRNPKLMLSNGH	0.907 ± 0.58
VPWLNGRVVASRKDKTRSSR	0.009 ± 0.76

Substance	amyloid nucleation score
AIVYDH	-0.291 ± 0.63
ARVNYLRTCKYASRNSFHRS	-0.913 ± 0.45
HLGSDRGDAWVANVKPERWD	1.03 ± 0.31
LYGTE	0.244 ± 0.2
STDIWVWFYRNFLMTANRN	inactive
LHIMVFQYLKWHTAI	-0.07 ± 0.49
ADQWGTRVWPGWEFVLEVAA	1.33 ± 0.31
HHLLVRMSMCC	4.49 ± 0.058
NILNFMDS	-0.603 ± 1.1
EIFFKCGFLLLGCDRPGRVR	0.413 ± 0.43
NTLYSFVRGCKPRMEFNRVK	-0.965 ± 1
IFSNLRSFE	0.657 ± 0.22
FVSLVWKTLKVSRSIVSNFD	2.74 ± 0.15
KCRHFCRCETCTRYDPVHIL	1 ± 0.53
ISASGVDSDEGVRPGQLMMC	10.4 ± 0.065
ERLRSLKDNIMNFCKSRLGL	inactive
CFMFWLCITNGIRPQCPLAS	0.016 ± 0.65
IPSRFPNFNR	-1.62 ± 0.55
ERLGSLFNDGQANS	0.21 ± 0.41
VVFRIVNRACVMYGVTGGND	-0.915 ± 0.63
LFNAVGLATV	0.33 ± 0.74
VYKMIVSRVHC	-1.17 ± 1
LLFKMAYRPLWHDNNMMTCM	0.112 ± 0.79
VPRSQIVVGIMFP	-1.06 ± 0.55
KCMRFIL	-0.087 ± 1

Substance	amyloid nucleation score
RFNVLRIGPLSHLQGWEHPT	-0.632 ± 0.63
FEFSPQSRCTGFLSVVCMVE	0.042 ± 0.5
AVFSSVLGYNA	0.257 ± 0.56
ASIYNFYVLNSPFLF	4.73 ± 0.081
KCPRVPNLVS	0.407 ± 0.43
GINWSAVYR	-0.083 ± 0.24
SEVHSWANGKVLTLYSRMWL	0.885 ± 0.28
HLFLRFADSSYWIS	1.24 ± 0.35
SYVVPGFISASFYLCYCTSK	3.03 ± 0.12
WNECVFGAPAFSRE	3.11 ± 0.15
SHNDISSRC	-0.795 ± 0.49
FKFTWRTFESNNLMVRVWLL	-1.29 ± 0.55
FLSSIGHLF	3.89 ± 0.12
CGRSRKRCIRASRSGSLNMC	0.293 ± 0.53
DQEALGRLWYLFAHGSLVTR	0.847 ± 0.44
QSLHRGR	-0.311 ± 1.1
LVGWSLHSITFPEWRGHNPK	-0.991 ± 1.1
LGPTVYDFLHMCFYFRA	4.74 ± 0.065
IYSYYGCYLCRNCGLVKFSK	4.03 ± 0.07
STLSWSFIYTSIC	2.24 ± 0.1
TNADGRTGT	-0.385 ± 0.39
SVLIFATRKCLYFYLGFMR	-1.66 ± 0.45
IRVNMSVTITRGWICHRLCK	0.293 ± 0.27
YALAAVSRFG	0.22 ± 0.55
IYTLP	inactive

Substance	amyloid nucleation score
GLYYASYNN	-1.63 ± 0.5
SHFADSKVHVWSMSQLATCC	0.22 ± 0.29
ECRMRLVFHRSIGYTTQCFV	3.37 ± 0.064
WSDACSGCNFK	inactive
IRKYVAWNLRALTMAMIQQR	-0.959 ± 0.48
VSKKFIIVVRNREFSP	4.43 ± 0.086
NMIYYGVL	-1.24 ± 0.45
NHSVTWLPD	1.27 ± 0.41
IVDGEKYDLVWMFEGHG	-0.536 ± 0.39
GGWNLDYVMRVYTRRLCNAS	1.17 ± 0.41
WCIKANSMSRNVYVEEMGER	-0.143 ± 0.24
FILDAVGNFFCFVRHTTPQV	0.106 ± 1
CTVCITKGWLMHVWYYAYRW	0.902 ± 0.22
QSMICTFFVLCLRSRYW	4.46 ± 0.068
SMRTG	0.448 ± 0.23
FYENN	-0.729 ± 0.78
NSAVATYCVVGQVPEK	0.883 ± 0.44
NCRFFIADVSLYPTWFIFYF	2.82 ± 0.12
FFCGMRPYVLVNCLCVFREN	6.374 ± 0.029
YVVGDMTFWS	-0.297 ± 1.1
FGYYQLYNDQGGYYPMSSAS	inactive
ISGFRPSAYWSVLNWNSSL	-1.78 ± 1.1
WRRFRFLLPWSLRPMS	inactive
ERGGIYWHVGRFSPDSEVTF	-0.27 ± 0.76
TLIDYYFYYCYGKSVDKAGL	-0.749 ± 0.45

Substance	amyloid nucleation score
SYVYMREKSIGTDSAVLRSM	inactive
YICVFLDSYLGHMYRPHWRV	1.91 ± 0.13
YVGSFVGSGIVLLNNSAVRH	3.4 ± 0.14
NRYVLCNLVVISVSGISLCT	7.249 ± 0.063
YVKVRWCGTSPCNEFLRSSY	0.429 ± 0.66
GTSVIHISYFIYYPGDRVRR	6.811 ± 0.052
GEQYATGLP	5.514 ± 0.039
CEEFMKFFAGYQTHVLVFSR	inactive
SFNNVKLDGRSF	-0.59 ± 0.64
PFLAFRGVWNFGL	5.1 ± 0.068
CPIDYGTSVNHDNKVSILYL	0.534 ± 0.51
QYDIVPNVSGNYPNGIFKDR	inactive
DADIRQ	0.764 ± 0.47
MATSMNQHGVRMVWSSRLGS	4.57 ± 0.051
SNGLGLQCGIRGKVFNELLS	-0.674 ± 0.42
GFVVMMFNLANRYSMQGDVG	8.234 ± 0.052
HSFNPNTCYLKGIDDALLGF	-0.838 ± 0.62
SKCLSIPISCFTCVLLCYFF	0.936 ± 0.17
IDWCFGRRENVGGHVRWRNG	1.48 ± 0.3
IHIWGSLSIDIEFVCGMKAR	1.04 ± 0.56
PGILRTFVETEYCITI	inactive
LTIDTTFVITSRYTCQLWQR	4.2 ± 0.056
LMSGVLGRWLKKSSKFQESL	-0.653 ± 1.1
NSVRSV	inactive
